The text below walks through data of IntAct's records for PubMed 9819391.

The target of one assay is crk_human CRK (UniProt P46108).
Assay [1] concerns the target src_chick SRC (UniProt P00523).
Assay [2] concerns the target src_chick SRC (UniProt P00523). This is another data set of the same source.

Chain of crk_human CRK (P46108 whole entry): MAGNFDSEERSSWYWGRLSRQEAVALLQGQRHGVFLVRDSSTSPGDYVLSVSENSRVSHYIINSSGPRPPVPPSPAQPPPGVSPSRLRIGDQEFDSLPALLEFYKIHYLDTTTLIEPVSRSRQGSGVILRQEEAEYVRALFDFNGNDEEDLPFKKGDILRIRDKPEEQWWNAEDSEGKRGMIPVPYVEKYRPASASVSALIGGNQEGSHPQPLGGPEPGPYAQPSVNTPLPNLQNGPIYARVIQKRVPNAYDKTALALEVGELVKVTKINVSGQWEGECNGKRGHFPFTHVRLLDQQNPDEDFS
Chain of Arf-GAP with SH3 domain, ANK repeat and PH domain-containing protein 1 (Mus musculus), Q9QWY8-1 P910A;P913A (Q9QWY8 whole entry P910A/P913A, the tested form may be a part): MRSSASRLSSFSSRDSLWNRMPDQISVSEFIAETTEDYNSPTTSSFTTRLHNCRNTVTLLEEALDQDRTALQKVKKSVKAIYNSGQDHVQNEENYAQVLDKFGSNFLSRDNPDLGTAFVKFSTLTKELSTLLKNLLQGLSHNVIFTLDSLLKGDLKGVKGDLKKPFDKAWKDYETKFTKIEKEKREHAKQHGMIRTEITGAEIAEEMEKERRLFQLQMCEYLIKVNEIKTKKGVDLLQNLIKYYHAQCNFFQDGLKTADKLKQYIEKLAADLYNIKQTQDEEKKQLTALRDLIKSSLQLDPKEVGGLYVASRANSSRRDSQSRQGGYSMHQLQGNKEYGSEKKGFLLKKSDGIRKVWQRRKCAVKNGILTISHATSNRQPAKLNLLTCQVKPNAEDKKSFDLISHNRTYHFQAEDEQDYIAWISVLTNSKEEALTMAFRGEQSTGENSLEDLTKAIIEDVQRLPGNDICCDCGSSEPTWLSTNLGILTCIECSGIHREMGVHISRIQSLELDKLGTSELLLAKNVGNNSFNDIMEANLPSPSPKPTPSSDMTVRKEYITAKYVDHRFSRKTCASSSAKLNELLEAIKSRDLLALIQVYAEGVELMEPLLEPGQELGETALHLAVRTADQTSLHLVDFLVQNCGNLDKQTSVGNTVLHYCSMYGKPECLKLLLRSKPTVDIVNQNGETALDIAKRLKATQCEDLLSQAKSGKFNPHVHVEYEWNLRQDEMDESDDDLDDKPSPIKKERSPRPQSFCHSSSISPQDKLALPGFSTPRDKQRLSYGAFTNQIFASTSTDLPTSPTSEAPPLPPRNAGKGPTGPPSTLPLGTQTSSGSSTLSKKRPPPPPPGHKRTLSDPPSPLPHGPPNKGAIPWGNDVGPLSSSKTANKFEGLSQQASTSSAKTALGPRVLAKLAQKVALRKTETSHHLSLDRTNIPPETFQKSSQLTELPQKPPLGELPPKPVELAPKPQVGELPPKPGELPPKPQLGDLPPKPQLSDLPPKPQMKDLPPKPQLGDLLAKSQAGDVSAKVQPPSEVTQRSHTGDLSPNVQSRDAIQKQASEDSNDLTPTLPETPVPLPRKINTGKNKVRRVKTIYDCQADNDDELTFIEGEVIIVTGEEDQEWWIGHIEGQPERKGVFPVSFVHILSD
Chain of Arf-GAP with SH3 domain, ANK repeat and PH domain-containing protein 1 (Mus musculus), Q9QWY8-1 R811A (Q9QWY8 whole entry R811A, the tested form may be a part): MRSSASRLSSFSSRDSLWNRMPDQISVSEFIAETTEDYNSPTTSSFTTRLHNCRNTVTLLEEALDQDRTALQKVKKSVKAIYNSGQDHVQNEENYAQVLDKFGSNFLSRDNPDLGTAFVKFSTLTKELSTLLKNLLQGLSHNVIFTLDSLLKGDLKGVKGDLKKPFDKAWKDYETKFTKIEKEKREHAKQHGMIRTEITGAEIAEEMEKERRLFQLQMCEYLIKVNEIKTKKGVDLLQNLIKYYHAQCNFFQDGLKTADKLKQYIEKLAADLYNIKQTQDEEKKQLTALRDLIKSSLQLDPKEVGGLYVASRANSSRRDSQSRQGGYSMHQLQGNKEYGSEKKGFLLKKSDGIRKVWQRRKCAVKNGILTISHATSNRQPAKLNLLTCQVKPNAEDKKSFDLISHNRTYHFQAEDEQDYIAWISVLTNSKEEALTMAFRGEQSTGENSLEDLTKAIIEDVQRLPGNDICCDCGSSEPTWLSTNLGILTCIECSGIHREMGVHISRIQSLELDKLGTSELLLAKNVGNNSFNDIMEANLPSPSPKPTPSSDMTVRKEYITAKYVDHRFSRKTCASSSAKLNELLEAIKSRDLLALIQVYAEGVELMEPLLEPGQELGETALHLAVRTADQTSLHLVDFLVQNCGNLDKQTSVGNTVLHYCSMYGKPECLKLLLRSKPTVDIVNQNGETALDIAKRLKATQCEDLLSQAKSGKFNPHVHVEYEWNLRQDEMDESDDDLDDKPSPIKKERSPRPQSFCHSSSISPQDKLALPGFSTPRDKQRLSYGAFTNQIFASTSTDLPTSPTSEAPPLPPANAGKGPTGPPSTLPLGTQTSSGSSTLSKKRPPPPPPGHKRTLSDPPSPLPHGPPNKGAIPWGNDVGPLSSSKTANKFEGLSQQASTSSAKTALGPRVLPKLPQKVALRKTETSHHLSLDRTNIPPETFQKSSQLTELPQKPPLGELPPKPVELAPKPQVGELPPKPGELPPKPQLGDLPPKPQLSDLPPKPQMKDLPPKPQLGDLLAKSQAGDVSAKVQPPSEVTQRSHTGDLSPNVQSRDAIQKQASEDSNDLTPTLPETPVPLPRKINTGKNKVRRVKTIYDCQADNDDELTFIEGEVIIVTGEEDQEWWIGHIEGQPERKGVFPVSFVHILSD
Chain of Arf-GAP with SH3 domain, ANK repeat and PH domain-containing protein 1 (Mus musculus), Q9QWY8-2 R811A;P849A;P853A (Q9QWY8 other isoform, or with tags, fused parts or gaps R811A;P849A;P853A): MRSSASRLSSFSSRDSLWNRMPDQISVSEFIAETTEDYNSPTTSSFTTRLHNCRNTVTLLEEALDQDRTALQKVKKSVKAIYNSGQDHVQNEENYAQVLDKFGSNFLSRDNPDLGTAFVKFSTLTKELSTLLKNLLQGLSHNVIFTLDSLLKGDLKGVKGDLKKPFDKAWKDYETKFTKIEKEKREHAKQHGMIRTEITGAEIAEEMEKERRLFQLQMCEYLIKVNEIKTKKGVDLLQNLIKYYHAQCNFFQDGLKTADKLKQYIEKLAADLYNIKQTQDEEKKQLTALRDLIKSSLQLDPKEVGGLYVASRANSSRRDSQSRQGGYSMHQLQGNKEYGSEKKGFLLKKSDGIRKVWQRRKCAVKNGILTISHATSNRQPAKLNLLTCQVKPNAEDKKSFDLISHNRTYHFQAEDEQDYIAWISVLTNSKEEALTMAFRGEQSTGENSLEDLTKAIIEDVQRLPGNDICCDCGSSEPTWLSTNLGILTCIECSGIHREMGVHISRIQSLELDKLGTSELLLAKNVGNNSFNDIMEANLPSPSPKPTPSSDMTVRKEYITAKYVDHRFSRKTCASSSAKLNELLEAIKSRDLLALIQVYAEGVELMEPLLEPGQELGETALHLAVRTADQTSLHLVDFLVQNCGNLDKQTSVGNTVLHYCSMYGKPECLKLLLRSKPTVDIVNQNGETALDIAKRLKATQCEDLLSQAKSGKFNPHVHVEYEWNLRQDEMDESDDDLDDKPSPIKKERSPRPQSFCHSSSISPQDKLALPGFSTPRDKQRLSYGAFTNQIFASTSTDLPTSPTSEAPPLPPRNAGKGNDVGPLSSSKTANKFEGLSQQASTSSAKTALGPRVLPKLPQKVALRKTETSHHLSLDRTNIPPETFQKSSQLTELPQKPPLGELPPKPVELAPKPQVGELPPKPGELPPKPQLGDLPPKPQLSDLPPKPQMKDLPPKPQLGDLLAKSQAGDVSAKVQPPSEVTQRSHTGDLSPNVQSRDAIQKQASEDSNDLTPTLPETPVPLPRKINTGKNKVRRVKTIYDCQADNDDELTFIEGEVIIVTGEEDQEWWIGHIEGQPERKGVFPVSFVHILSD
Chain of Arf-GAP with SH3 domain, ANK repeat and PH domain-containing protein 1 (Mus musculus), Q9QWY8-1 R811A;P910A;P913A (Q9QWY8 whole entry R811A/P910A/P913A, the tested form may be a part): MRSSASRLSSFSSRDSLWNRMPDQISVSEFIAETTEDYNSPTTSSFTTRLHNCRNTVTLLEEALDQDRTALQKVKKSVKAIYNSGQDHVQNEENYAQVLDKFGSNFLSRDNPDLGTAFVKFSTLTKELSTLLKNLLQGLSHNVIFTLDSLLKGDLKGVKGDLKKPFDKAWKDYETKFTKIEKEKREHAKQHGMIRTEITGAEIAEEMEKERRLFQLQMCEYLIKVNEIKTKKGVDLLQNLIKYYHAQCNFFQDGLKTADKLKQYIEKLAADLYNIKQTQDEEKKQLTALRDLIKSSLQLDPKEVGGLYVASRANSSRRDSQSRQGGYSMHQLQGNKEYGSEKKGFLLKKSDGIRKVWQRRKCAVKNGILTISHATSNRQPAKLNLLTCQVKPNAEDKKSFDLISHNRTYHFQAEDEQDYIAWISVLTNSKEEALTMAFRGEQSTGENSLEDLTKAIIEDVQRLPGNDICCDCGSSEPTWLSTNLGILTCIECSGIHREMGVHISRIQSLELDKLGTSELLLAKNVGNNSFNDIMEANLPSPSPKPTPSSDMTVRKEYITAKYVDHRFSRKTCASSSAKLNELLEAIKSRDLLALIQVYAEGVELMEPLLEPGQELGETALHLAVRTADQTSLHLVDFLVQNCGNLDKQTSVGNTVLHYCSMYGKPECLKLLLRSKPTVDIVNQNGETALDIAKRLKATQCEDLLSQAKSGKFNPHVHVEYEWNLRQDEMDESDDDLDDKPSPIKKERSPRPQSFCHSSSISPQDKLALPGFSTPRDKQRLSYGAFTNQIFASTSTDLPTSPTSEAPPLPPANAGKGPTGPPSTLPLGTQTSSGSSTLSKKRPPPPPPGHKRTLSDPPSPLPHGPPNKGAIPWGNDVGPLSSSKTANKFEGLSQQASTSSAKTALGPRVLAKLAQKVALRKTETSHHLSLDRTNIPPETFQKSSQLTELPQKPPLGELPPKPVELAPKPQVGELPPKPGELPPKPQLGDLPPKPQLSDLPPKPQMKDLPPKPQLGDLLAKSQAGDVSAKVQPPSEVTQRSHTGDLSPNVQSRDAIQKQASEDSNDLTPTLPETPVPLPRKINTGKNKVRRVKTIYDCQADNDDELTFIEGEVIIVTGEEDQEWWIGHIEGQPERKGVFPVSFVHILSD

As to “Arf-GAP with SH3 domain, ANK repeat and PH domain-containing protein 1 (Mus musculus), Q9QWY8-1 P910A;P913A”, the “effect of a mutation on the interaction” value in the assay with crk_human CRK and with src_chick SRC [1] was “decreasing interaction” in each case.

For the substance “Arf-GAP with SH3 domain, ANK repeat and PH domain-containing protein 1 (Mus musculus), Q9QWY8-1 R811A”, the “effect of a mutation on the interaction” value with crk_human CRK and with src_chick SRC [1] was “decreasing interaction” in each case.

Consider “Arf-GAP with SH3 domain, ANK repeat and PH domain-containing protein 1 (Mus musculus), Q9QWY8-1 R811A;P910A;P913A”, for which, in the assay with crk_human CRK, the “effect of a mutation on the interaction” value is given as “disrupting interaction”.

On to “Arf-GAP with SH3 domain, ANK repeat and PH domain-containing protein 1 (Mus musculus), Q9QWY8-2 R811A;P849A;P853A”, for which, in the assay with src_chick SRC [2], the “effect of a mutation on the interaction” value was “disrupting interaction”.
